Holding throughout (experiment): ELISA, non-reduced antigen
For assay [1], the target named is T1, non-reduced CFHR3.
T1 construct: also called CFHR3 (NON-REDUCED)
T1 chain: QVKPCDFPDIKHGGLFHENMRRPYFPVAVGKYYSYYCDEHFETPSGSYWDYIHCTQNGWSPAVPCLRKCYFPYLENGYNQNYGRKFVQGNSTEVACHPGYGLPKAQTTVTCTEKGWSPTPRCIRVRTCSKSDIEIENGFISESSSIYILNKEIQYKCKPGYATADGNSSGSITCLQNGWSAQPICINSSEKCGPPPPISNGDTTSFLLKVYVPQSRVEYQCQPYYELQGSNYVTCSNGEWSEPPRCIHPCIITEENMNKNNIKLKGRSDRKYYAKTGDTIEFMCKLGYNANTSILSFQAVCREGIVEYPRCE

The target in assay [2] is T2, non-reduced CFHR2.
T2 construct: also called CFHR2 (NON-REDUCED)
T2 chain: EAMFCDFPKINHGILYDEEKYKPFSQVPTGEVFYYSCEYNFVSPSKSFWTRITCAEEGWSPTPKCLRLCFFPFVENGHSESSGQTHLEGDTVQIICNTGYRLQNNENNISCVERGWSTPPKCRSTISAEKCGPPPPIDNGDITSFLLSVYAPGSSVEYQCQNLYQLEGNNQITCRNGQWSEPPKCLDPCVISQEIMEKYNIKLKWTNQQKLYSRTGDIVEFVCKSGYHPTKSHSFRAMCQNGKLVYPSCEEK

Assay [3] concerns the target T3, non-reduced CFHR1.
T3 construct: also called CFHR1 (NON-REDUCED)
T3 chain: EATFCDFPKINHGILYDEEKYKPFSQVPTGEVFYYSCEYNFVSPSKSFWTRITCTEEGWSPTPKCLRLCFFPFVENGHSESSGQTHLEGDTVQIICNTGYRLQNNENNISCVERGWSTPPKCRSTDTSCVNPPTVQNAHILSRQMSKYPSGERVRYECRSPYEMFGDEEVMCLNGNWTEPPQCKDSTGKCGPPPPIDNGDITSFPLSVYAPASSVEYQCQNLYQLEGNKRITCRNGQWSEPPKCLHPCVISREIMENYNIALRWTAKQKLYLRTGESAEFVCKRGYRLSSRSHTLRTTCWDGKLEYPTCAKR

For assay [4], the target named is T4, non-reduced CFHR5.
T4 construct: also called CFHR5 (NON-REDUCED)
T4 chain: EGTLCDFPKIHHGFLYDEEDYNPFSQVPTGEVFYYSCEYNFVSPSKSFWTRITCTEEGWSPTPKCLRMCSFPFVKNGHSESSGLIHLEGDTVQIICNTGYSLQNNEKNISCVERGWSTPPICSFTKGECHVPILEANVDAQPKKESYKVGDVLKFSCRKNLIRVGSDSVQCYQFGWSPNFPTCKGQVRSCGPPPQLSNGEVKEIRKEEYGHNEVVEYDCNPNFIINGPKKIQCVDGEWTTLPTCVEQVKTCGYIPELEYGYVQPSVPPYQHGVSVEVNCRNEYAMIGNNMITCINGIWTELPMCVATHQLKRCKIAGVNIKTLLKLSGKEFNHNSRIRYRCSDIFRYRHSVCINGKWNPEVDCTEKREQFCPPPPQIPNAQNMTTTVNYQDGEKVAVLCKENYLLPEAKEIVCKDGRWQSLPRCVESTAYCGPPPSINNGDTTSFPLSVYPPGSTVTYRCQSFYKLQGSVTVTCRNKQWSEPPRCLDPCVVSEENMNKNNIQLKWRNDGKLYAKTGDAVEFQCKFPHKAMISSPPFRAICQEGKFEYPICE

In assay [5] the target is T5, non-reduced CFH.
T5 construct: also called CFH (NON-REDUCED)
T5 chain: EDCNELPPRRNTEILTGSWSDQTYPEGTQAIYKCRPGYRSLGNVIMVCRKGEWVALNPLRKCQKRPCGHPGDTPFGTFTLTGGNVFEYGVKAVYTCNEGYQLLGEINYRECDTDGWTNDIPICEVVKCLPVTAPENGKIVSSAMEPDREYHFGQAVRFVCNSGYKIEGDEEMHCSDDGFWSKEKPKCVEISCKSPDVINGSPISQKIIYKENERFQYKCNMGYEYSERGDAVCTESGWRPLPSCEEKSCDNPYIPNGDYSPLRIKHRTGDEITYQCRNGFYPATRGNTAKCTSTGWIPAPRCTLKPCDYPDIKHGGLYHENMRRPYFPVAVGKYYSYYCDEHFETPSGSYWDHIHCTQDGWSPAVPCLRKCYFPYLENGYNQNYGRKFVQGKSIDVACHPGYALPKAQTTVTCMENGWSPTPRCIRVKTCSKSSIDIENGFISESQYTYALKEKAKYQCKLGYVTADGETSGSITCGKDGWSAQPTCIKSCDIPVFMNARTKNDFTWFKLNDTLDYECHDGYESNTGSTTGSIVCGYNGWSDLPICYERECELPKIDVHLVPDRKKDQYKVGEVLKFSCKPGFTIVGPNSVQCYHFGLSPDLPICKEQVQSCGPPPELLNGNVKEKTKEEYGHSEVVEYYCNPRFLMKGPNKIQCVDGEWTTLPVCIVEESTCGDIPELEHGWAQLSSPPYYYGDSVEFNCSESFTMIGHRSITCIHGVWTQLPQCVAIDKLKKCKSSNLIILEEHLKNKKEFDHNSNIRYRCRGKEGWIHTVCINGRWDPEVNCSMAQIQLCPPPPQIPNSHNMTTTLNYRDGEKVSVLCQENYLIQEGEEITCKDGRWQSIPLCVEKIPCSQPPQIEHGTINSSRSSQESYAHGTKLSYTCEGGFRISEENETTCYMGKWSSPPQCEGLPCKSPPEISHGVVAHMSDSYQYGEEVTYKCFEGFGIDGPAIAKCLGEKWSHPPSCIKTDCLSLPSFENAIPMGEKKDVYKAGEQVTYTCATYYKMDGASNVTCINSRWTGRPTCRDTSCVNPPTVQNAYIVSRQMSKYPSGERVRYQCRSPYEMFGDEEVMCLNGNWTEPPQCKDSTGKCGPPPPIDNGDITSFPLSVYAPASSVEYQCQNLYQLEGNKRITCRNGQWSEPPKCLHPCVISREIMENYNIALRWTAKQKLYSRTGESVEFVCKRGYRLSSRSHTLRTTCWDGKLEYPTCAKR

Assay [6] deals with T6, non-reduced CFHR4.
T6 construct: not reduced; also called CFHR4 (NON-REDUCED)

Positions count from the first letter of the chain named.

B1: ATL4717 (antibody, human IgG1, kappa, V domains shown)
VH: QVQLVESGGGMVQPGRSLRLSCAASGFTFSIYGMHWVRQAPGRGLEWVAVMSFDGKTKYYADSVKGRFTISRDNSKNTLYLQMNSLRRVDTAVYYCAKGGATAAVFDSWGQGTLVTVSS
VL: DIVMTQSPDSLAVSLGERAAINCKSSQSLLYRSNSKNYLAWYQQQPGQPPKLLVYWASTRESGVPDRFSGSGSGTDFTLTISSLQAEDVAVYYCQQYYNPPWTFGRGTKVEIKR
notes: Human IgG1; also called ATL0004717; ATL04717
For B1, the binding result in assay [1] and in assay [4] was “no binding (tested: 1 ug/ml)” each time. The “fold change vs isotype at 1 ug/ml” value amounted to 0.9 fold in assay [1]; 4.3 fold in assay [2]; 10.7 fold in assay [3]; 0.9 fold in assay [4]; 7.3 fold in assay [5]; 0.9 fold in assay [6].

B2: ATL5170 (antibody, human IgG1, kappa, V domains shown)
VH: B1 VH with M11V, I31N, R43K, M51T, R88A, V89E, F106L
VL: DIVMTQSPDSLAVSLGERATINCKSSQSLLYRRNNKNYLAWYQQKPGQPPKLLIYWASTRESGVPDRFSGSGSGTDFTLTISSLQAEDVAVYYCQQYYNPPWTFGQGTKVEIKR
notes: IgG1; also called ATL_0005170
As to B2, the binding result in assay [1] and in assay [4] was “no binding (tested: 1 ug/ml)” each time. Also, the “fold change vs isotype at 1 ug/ml” value was 1 fold in assay [1]; 1.3 fold in assay [2]; 8.4 fold in assay [3]; 1 fold in assay [4]; 10 fold in assay [5]; 0.9 fold in assay [6].
